Experimental data from the nanobody polyreactivity screen of Harvey et al. (2022).

Test: yeast display, Sf9 membrane polyspecificity reagent, FACS + sequencing; frameworks hold sequencing errors
Procedure, shortened: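 Synthetic nanobody libraries on Saccharomyces cerevisiae BJ5465 were galactose-induced for 36–48 hours, stained 1 hour at 4 °C with 10% biotinylated, detergent-solubilized Sf9 membrane reagent and enriched on streptavidin microbeads. FACS then separated cells into low and high (top ~1%) gates by anti-HA (expression) and streptavidin (reagent binding) fluorescence. Genes were colony-PCR amplified, MiSeq 2 × 250 sequenced and CDR-length filtered. A clone's polyreactivity label is that of its gate of origin.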

| Sequence | polyreactivity (PSR sort gate) |
| --- | --- |
| QVQLVESGGGLVQAGGSLRLRCAASGFTFGYNAMGWYRQAPGKERELVAAIYFSDGITYYADSVKGRFTISRDNAKNTVYLQMNSLKPEDTAVYYCAADLYFEYEYWGQGTQVTVSS | high polyreactivity |
| QVQLVESGGGLVQAGGSLRLRCAASGFTFPSYPMGWYRQAPGKEREVVAAISQRGGSTYYADSEKGRFTISRDNAKHTVYLQLNSLKPEDTAVYYCAALAPRTGRPTYGYWGQGTQVTVSS | low polyreactivity |
| QVQLVESGGGLVQAGGSLRLRCAASGFTIGANTMGWYRQAPGKEWELVASISASGGSTYYADSVKGRVTISRDNAKNTVYVQMNSLKPDDTAGYYCAARRYPGRTATYYSWGQGTQVTVSS | high polyreactivity |
| QVQLVESGGGLVQAGGSLRLRCAASGGTFYPYALGWYRQAPGKESELVAAISTSGGITYYADSVKARFTISRDNAKNTVYLQMNSLKPEDTAVYYCAAPVAYRGSRNFIYRYNYWGQGTQVTVSS | high polyreactivity |
| QVQLVESGGGLVQAGGSLRLRCAASGHIFRQYAMGWYRQAPGKERELVAAITSGGSTYYADSVKGRFTISRDNAKNTVYLEMNSLKPEDNAVYYCADKYFFSYRHGDYWGQGNQVTVSS | low polyreactivity |
| QVQLVESGGGLVQAGGSLRLRCAASGIIFDGNVMGWYSQAPGKEREFVASISISGGSTSYADSVKGRFTISRDNAKNTVYLQMNSLNPEDTAVYYCNTDVGYGRVWRWRYHGDYWGQGTQVTVSS | low polyreactivity |
| QVQLVESGGGLVQAGGSLRLRCAASGIIIYDYAMGWYRQAPGKERELVAAISSTAVGTYYADSVKGRFTISRDNAKNTVYLQMNSLKPVDTAVYYCAAAVSPHSEGFGEYNYWGQGTQVTVSS | low polyreactivity |
| QVQLVESGGGLVQAGGSLRLRCAASGLTFGVYPMGWYRQAPGKERELVAAISSSGGSTYYADSVKGRYTISRDYAKNTVYLHMNSLKPEDTAVYYCNAGRGTKYDYWGQGTQVTVSS | low polyreactivity |
| QVQLVESGGGLVQAGGSLRLRCAASGLTFVYYAMGWYRQAPVKERELVAAITSGGSTYYADSVKGRFTISRDNAKNTVYLQMNSLKPEDTAVYYCAATYPGFYFLLDEYWGQGTQVTVSS | high polyreactivity |
| QVQLVESGGGLVQAGGSLRLRCAASGNIFDDNAMGWYRQAPGKERELVAALTWTGGSTYYADSVKGRFTISRDNAKNTVYLQMNSLKAEYTAVYNCADYDYWGQGTQVTVSS | low polyreactivity |
| QVQLVESGGGLVQAGGSLRLRCAASGNTFFGYDMGWYRQAPGKERELVAAISGSGGGTYYADSVKGRFTISRDNAMNTVYLQMNCLKPEDTAVYYCAADSPQTEGYWGEGTQVTVSS | low polyreactivity |
| QVQLVESGGGLVQAGGSLRLRCAASGNTFGYYTMGWYRQAPAKESELVASIDSGGGTNYADSVKGRFTISRDNAKNTVYLQMNRLKPEDTAVYSCAAASPLYWVDDFESGWRYYYWGQGTQVTVSS | low polyreactivity |
| QVQLVESGGGLVQAGGSLRLRCAASGRIFGRYAMGWYRQAPGKERELVARITYIAGNTYYADSVKGRFTISRDNSKNTVYLQMKSLKPEDTAVYSCNADSYYIQYDYWGQGTQVTVSS | high polyreactivity |
| QVQLVESGGGLVQAGGSLRLRCAASGRLFQSNAMGWYIQAPGKERELVSGINSDTSTYYADSVKGRFTISRDNAKNTVYLKMNSLKPDDTAVYYCNAGWDTYYWQSTEFDYWGQGTQVTVSS | low polyreactivity |
| QVQLVESGGGLVQAGGSLRLRCAASGRTFAFYGMGWYRQAPGNARELVAAITKRGGSTYYADSVKGRFTISLDNAKYTVYLQMNSLKPEDTAVYYCAATGVKGRIAVWYGYWGQGTQVTVSS | high polyreactivity |
| QVQLVESGGGLVQAGGSLRLRCAASGRTFSGYAMGWYRQSPGKERELVAAITASGSSTYYADSVKGRFTSSRDNAKNTVDLQMNSLKPEDTAVYYCAADYTGDWADGPHSLREYDYWGQGTQVTVSS | low polyreactivity |
| QVQLVESGGGLVQAGGSLRLRCAASGRTFSSNAMGWSRQAPGKERQLVASITWSGRTYYADSVKGRFTNSRDNAKNTVYLQMNSRNPEDHAVYYCATVYRQESYFYTLYYWGQGTQVTVSS | high polyreactivity |
| QVQLVESGGGLVQAGGSLRLRCAASGRTFVGTAMGWYRQAPGKERELVAAISWDGGSPYYADSVKGRFTISRDNAKNTVYLQMNSLKPEDTAVYYCAALYRPSAFRGYGYWGQGTQVTVSS | high polyreactivity |
| QVQLVESGGGLVQAGGSLRLRCAASGRTFWKNAMGWYRQEPRKECELVAAISWGGGSTYYADSVKGRFTISRDNAKNTVYLQMNSLKPEDTAVYYCNVYYRRVLLGFYYWGQGTQVTVSS | low polyreactivity |
| QVQLVESGGGLVQAGGSLRLRCAASGRYAMGWYRQAPGKEREFVARITWSGGSTYYADSVKGRFTISRDNAKNTVYLQMNSLNPEDTAVYYCAKVSRRTDYYYWGQGTQVTVSS | high polyreactivity |
| QVQLVESGGGLVQAGGSLRLRCAASGSIFFFYAMGWYSQARGKEREFVAGITYSGGITYYADSVKGRFTISRDNAKNTDYLQMNSLKPEDTAVYFCDYGGGVYQYGYWGQGTQVTVSS | low polyreactivity |
| QVQLVESGGGLVQAGGSLRLRCAASGSIFISYAMGWYRQAPGKERELVAAISIRGTRTFYADSVKGRFTISRDNAKNTVYLQMNSLKPEDTAVYYCAARAPWPKWGYYYWGQGTQVTVSS | high polyreactivity |
